Measured values: publication PMC9044917 (Nature structural & molecular biology, 2022)

B1: IMPDH1(514) (enzyme)
chain: not shown
B2: IMPDH1(514)-R231P (enzyme)
chain: not shown
B3: IMPDH1(514)-D226N (enzyme)
chain: not shown
B4: IMPDH1(514)-K238E (enzyme)
chain: not shown
B5: IMPDH1(514)-R224P (enzyme)
chain: not shown
B6: IMPDH1(514)-R105W (enzyme)
chain: not shown
B7: IMPDH1(514)-T116M (enzyme)
chain: not shown
B8: IMPDH1(514)-V268I (enzyme)
chain: not shown
B9: IMPDH1(514)-H372P (enzyme)
chain: not shown
B10: IMPDH1(514)-N198K (enzyme)
chain: not shown

Target: the molecule itself
Test: negative stain EM

Protein	binding result
B1	binds

Target: the molecule itself
Test: negative stain EM
Remark: another data set of the same source

Protein	binding result
B2	binds
B3	binds
B4	binds
B5	binds
B6	binds
B7	binds
B8	binds
B9	binds
B10	binds
